According to IntAct's records for PubMed 16319076:

B1: Profilin-2 (Mus musculus), Q9JJV2-1 (parent)
chain: MAGWQSYVDNLMCDGCCQEAAIVGYCDAKYVWAATAGGVFQSITPVEIDMIVGKDREGFFTNGLTLGAKKCSVIRDSLYVDGDCTMDIRTKSQGGEPTYNVAVGRAGRVLVFVMGKEGVHGGGLNKKAYSMAKYLRDSGF
partner: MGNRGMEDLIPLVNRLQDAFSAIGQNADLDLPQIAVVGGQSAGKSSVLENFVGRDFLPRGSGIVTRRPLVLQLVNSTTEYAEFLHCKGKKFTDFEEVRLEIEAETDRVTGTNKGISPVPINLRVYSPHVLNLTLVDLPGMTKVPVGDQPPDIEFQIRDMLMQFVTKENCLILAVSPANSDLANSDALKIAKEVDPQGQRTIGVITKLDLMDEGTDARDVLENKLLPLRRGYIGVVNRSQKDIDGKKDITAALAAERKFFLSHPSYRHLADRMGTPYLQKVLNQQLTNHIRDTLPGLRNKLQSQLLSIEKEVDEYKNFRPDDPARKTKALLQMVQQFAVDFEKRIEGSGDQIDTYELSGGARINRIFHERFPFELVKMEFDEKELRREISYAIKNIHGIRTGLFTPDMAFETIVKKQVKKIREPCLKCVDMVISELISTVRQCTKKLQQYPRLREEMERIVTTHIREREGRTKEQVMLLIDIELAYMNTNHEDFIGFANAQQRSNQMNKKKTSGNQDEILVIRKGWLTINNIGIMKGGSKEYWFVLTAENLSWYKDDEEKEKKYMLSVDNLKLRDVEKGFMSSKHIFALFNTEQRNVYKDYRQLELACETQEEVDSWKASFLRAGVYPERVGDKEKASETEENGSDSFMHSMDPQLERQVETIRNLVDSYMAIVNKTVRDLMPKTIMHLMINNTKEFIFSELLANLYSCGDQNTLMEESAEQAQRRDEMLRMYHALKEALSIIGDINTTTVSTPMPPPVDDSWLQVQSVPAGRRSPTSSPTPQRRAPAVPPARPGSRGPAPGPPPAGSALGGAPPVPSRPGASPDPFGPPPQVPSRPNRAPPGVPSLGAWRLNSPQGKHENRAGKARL

Variants of: B1
Conditions: with dyn1_mouse Dnm1, P39053
For S138D, the “effect of a mutation on the interaction” value was “decreasing interaction”.
